± gives the standard error.
Test: background-corrected fluorescence of 3'-dye-labeled ssDNA relative to brightest sequence (3'-GCGCG) (fraction); higher = brighter dye fluorescence (less quenching)
Summary of the method: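 Single-stranded DNA was built on glass slides by light-directed phosphoramidite synthesis, ending in a 3' Cy3 or Cy5 dye beside each of 1024 permuted pentamers. Arrays were washed in acetonitrile for 2 h at r.t., then scanned at 532 or 635 nm before and after overnight ethylenediamine/ethanol deprotection. Each value averages 10 features per array and at least 3 syntheses. Fluorescence, corrected by subtracting unlabeled-oligo background, is scaled to the brightest sequence.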

Row | Sequence | background-corrected fluorescence (dye: Cy3 (3' terminal)) | background-corrected fluorescence (dye: Cy5 (3' terminal))
1 | TTTTTTGATCATCAGCATGCTTTTTTTTTTTTTTTCGGTA [ATGGC] | 0.589 ± 0.071 | 0.488 ± 0.029
2 | TTTTTTGATGAGCATCATCATTTTTTTTTTTTTTTCCTGG [GGTCC] | 0.557 ± 0.023 | 0.47 ± 0.054
3 | TTTTTTCATGCTCAGCATGCTTTTTTTTTTTTTTTGAGTA [ATGAG] | 0.603 ± 0.026 | 0.486 ± 0.035
4 | TTTTTTGCGCATGCTCATGATTTTTTTTTTTTTTTATAGC [CGATA] | 0.519 ± 0.027 | 0.407 ± 0.031
5 | TTTTTTGCGCATCAGCATGCTTTTTTTTTTTTTTTATGTA | 0.549 ± 0.017 | 0.47 ± 0.039
6 | TTTTTTGAGCAGCATCAGCATTTTTTTTTTTTTTTCTTGT [TGTTC] | 0.604 ± 0.019 | 0.429 ± 0.024
7 | TTTTTTCATCATCATGAGCATTTTTTTTTTTTTTTGGGCT [TCGGG] | 0.527 ± 0.017 | 0.442 ± 0.024
8 | TTTTTGCAGCATGATGCTGATTTTTTTTTTTTTTTTTCAC [CACTT] | 0.385 ± 0.01 | 0.289 ± 0.016
9 | TTTTTTCAGCATGCTGCTGATTTTTTTTTTTTTTTGTAAC [CAATG] | 0.441 ± 0.025 | 0.364 ± 0.026
10 | TTTTTTGCTGCTCAGCATGATTTTTTTTTTTTTTTAAGTC [CTGAA] | 0.438 ± 0.029 | 0.349 ± 0.015
11 | TTTTTTGAGCATCATCAGCATTTTTTTTTTTTTTTCTGGT [TGGTC] | 0.653 ± 0.018 | 0.557 ± 0.035
12 | TTTTTTCATGCTGATCATGATTTTTTTTTTTTTTTGACGC [CGCAG] | 0.577 ± 0.062 | 0.462 ± 0.065
13 | TTTTTGCAGCATGCTCATGATTTTTTTTTTTTTTTTTAGC [CGATT] | 0.506 ± 0.028 | 0.385 ± 0.023
14 | TTTTTTGCGCATCATCATGATTTTTTTTTTTTTTTATGGC [CGGTA] | 0.545 ± 0.043 | 0.445 ± 0.026
15 | TTTTTGCAGCATGCTCAGCATTTTTTTTTTTTTTTTTAGT [TGATT] | 0.619 ± 0.012 | 0.5 ± 0.03
16 | TTTTTTGCGCATCATGCTGCTTTTTTTTTTTTTTTATGAA [AAGTA] | 0.594 ± 0.017 | 0.51 ± 0.053
17 | TTTTTTGCTCATGCGCATGCTTTTTTTTTTTTTTTAGATA [ATAGA] | 0.582 ± 0.025 | 0.434 ± 0.019
18 | TTTTTTGCTCATGCGCATGATTTTTTTTTTTTTTTAGATC [CTAGA] | 0.464 ± 0.013 | 0.359 ± 0.023
19 | TTTTTTCATGCTGCTGCGCATTTTTTTTTTTTTTTGAAAT [TAAAG] | 0.574 ± 0.015 | 0.419 ± 0.025
20 | TTTTTTGCTGATGCGCATGATTTTTTTTTTTTTTTACATC [CTACA] | 0.392 ± 0.027 | 0.322 ± 0.018
21 | TTTTTTCATGCTCATGAGCATTTTTTTTTTTTTTTGAGCT [TCGAG] | 0.559 ± 0.024 | 0.41 ± 0.022
22 | TTTTTTGCTGATGCTCATGATTTTTTTTTTTTTTTACAGC [CGACA] | 0.508 ± 0.023 | 0.404 ± 0.024
23 | TTTTTTGCGCATGCTGATCATTTTTTTTTTTTTTTATACG [GCATA] | 0.574 ± 0.022 | 0.43 ± 0.029
24 | TTTTTTGCTGATCAGCATCATTTTTTTTTTTTTTTACGTG [GTGCA] | 0.589 ± 0.022 | 0.472 ± 0.028
25 | TTTTTGCATGATGCTGCTGCTTTTTTTTTTTTTTTTCAAA [AAACT] | 0.562 ± 0.024 | 0.462 ± 0.051
26 | TTTTTGCATGCTGCTGAGCATTTTTTTTTTTTTTTTAACT [TCAAT] | 0.492 ± 0.02 | 0.353 ± 0.027
